From US20260167721A1 (ABLEXIS, published 2026) come the findings set out here.

Assay [1] has as its target T1, recombinant human CD3 epsilon/delta heterodimer (human, UniProt P07766 23-126; P04234 22-105).
T1 construct: Recombinant protein in solution (200-50 nM) in the Octet assay; also called hCD3 E/D; human CD3E/D
The experiment in a line: Octet BLI, mAb on FAB2G sensor, hCD3 E/D 200-50 nM; R^2 0.97. In general terms: In BLI a coated tip is dipped into the sample, and binding shifts an interference pattern.
Description: (§1) Samples were evaluated by flow cytometry analysis against Jurkat and human Pan-T cells (FIG. 1B) as well as by Octet against recombinant human CD3 proteins to evaluate apparent affinities and binding off-rates (Table 6, infra).

For assay [2], the target named is T2, recombinant human CD3 epsilon/gamma heterodimer (human, UniProt P07766 23-126; P09693 23-116).
T2 construct: Recombinant protein in solution (200-50 nM) in the Octet assay; also called hCD3 E/G
T2 sequence (P07766 23-126, chain 1 of 2): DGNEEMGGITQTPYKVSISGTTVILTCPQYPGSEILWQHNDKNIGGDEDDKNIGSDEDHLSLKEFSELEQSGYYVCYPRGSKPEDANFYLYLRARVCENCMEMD
T2 sequence (P09693 23-116, chain 2 of 2): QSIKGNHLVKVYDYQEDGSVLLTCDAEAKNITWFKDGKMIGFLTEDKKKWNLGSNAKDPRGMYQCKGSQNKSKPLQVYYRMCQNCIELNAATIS
The assay can be described thus: Octet BLI, mAb on FAB2G sensor, hCD3 E/G 200-50 nM; R^2 0.98.
Description: as §1

Assay [3] has as its target T1, recombinant human CD3 epsilon/delta …. The experiment in a line: Octet BLI, mAb on FAB2G sensor, hCD3 E/D 200-50 nM; R^2 0.99.
Assay [4] has as its target T2, recombinant human CD3 epsilon/gamma …. The experiment in a line: Octet BLI, mAb on FAB2G sensor, hCD3 E/G 200-50 nM; R^2 1.00.
Description: as §1
The target in assay [5] is T1, recombinant human CD3 epsilon/delta …. The experiment in a line: Octet BLI, mAb on FAB2G sensor, hCD3 E/D 200-50 nM; R^2 1.00.
Assay [6] has as its target T2, recombinant human CD3 epsilon/gamma …. The assay can be described thus: Octet BLI, mAb on FAB2G sensor, hCD3 E/G 200-50 nM; R^2 0.94.
Description: as §1
The target of assay [7] is T3, CD33 on KILR-HL60 cells (UniProt P20138 18-364, limits assumed).
T3 construct: whole, on cells; Target of the gemtuzumab arm; also called CD33 expressing cells
T3 sequence (P20138 18-364 limits assumed): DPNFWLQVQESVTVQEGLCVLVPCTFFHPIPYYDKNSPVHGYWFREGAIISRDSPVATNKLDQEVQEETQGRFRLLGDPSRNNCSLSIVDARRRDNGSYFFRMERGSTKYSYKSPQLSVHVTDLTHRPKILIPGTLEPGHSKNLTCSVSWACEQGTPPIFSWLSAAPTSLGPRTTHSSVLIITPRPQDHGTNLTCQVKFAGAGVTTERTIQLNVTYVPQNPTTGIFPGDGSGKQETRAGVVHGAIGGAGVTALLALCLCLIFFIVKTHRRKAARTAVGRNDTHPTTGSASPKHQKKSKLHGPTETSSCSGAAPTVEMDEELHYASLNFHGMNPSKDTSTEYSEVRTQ
The experiment in a line: flow cytometry on KILR-HL60 (CD33 expressing) cells, antibody at 1 ug/ml. For orientation: Flow cytometry measures light scatter and fluorescence of single cells or particles in a stream.

Assay [8] addresses T3, CD33 on KILR-HL60 cells. The experiment in a line: flow cytometry on KILR-HL60 (CD33 expressing) cells, antibody at 10 ug/ml.

T1 sequence (P07766 23-126, stated change not applied, chain 1 of 2): as the sequence (P07766 23-126, chain 1 of 2) above
T1 sequence (P04234 22-105, stated change not applied, chain 2 of 2): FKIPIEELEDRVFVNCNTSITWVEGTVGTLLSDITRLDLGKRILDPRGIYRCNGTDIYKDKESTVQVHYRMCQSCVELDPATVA

B1: ABL-CD3-38 (antibody, V domains shown)
VH: QGQLQQWGAGLLKPSETLSLTCAVYGGSFSGYYWSWIRLPPGKGLEWIGEINHSGNTNYNPSLKSRVTISVDTSKNQFSLQLSSVTAADTAVYYCAKEVEIWGYFDYWGQGTLVTVSS
VL: QSVLTQPPSVSGAPGQRVTISCTGSSSNIGAGYDVHWYQQLPGTAPKLLIYGNSNRPSGVPDRFSGSKSGTSASLAITGLQAEDETDYNCQSYDSSLSGYVFGTGTKVTVL
notes: Chimeric hybridoma mAb: human V, CH1, upper hinge; mouse middle hinge, CH2, CH3
The Kd is a measure of binding affinity in units of concentration. For orientation: koff means the rate constant with which the complex falls apart. Broadly, the kon is the rate constant with which the complex forms. As for B1, in assay [1], the Kd is 1.41 nM, the Response is 0.73, the koff was found to be 0.00035 s⁻¹ and the kon was 248000 M⁻¹ s⁻¹. Besides, in assay [2], the Kd is 1.36 nM, the Response turned out to be 0.73, the koff stood at 0.000331 s⁻¹ and the kon was 243000 M⁻¹ s⁻¹.

B2: ABL-CD3-25 (antibody, V domains shown)
VH: EVHLVESGGGLVKPGGSLRLSCAASGFTFSSYSMNWVRQAPGKGLEWVSSISSSSTYIYYADSVKGRFTISRDNAKNSLYLQMNSLRAEDTAVYYCAREPRTLGMDYWGQGILVTVSS
VL: NFMLTQPHSVSESPGKTVTISCTRSSGSIASNYVQWYQQRPGSSPTTVIYEDNHRPSGVPDRFSGSIDSSSNSASLTISGLKTEDEADYFCQSFDSSNRVFGGGTKLTVL
notes: as for B1
As to B2, in assay [3], the Kd was 8.56 nM, the Response stood at 1.32, the koff was found to be 0.000933 s⁻¹ and the kon was 109000 M⁻¹ s⁻¹. In assay [4], the Kd worked out at 11.7 nM, the Response worked out at 1.27, the koff came to 0.00113 s⁻¹ and the kon was 96600 M⁻¹ s⁻¹.

B3: ABL-CD3-58 (antibody, V domains shown)
VH: EVQLVESGGGLVKPGGSLRLSCVVSGFTFSNYNMNWVRQAPGKGLEWVSSSSRSSYIYYADSVKGRFTISRDNAKNSLYLQMNSLRAEDTAIYYCAREKWELLFFDYWGQGTLVTVSS
VL: NFMLTQPHSVSESPGKTVTISCTRSSGSIASNFVQWYQQRPGSSPTTVIYEDNQRPSGVPDRFSGSIDSSSNSASLTISGLKTEDEADYYCQSFDSSNRVFGGGTKLTVL
notes: as for B1
As for B3, in assay [5], the Kd was 44.1 nM, the Response amounted to 0.57, the koff was determined as 0.00265 s⁻¹ and the on-rate (kon) amounted to 60100 M⁻¹ s⁻¹. Moreover, in assay [6], the Kd is 45.2 nM, the Response is 0.28, the koff came to 0.00705 s⁻¹ and the kon came to 156000 M⁻¹ s⁻¹.

B4: ABL-CD3-15 (antibody, V domains shown)
VH: EVQLVESGGGLVKPGGSLRLSCAASGFNCSSYSMNWVRQAPGKGLEWVSSISRSSNYIYYADSVKGRFSISRDDAKNSLYLQMNSLRAEDTAVYYCARERWIQLYSDYWGQGILVTVSS
VL: NFMLTQPHSVSESPGKTVTISCTRSSGSIASNYVQWYQQRPGSSPTTVIYEDNQRPSGVPDRFSGSIDSSSNSASLTISGLKTEDEADYYCQSYDSSNRVFGGGTKLTVL
notes: as for B1
Consider B4, for which, in assay [3], the Kd came out at 1.62 nM, the Response was found to be 0.93, the koff is 0.000276 s⁻¹ and the kon stood at 171000 M⁻¹ s⁻¹. In addition, in assay [4], the Kd was found to be 6.54 nM, the Response was determined as 0.83, the koff turned out to be 0.00113 s⁻¹ and the kon was 173000 M⁻¹ s⁻¹.

B5: ABL-CD3-19 (antibody, V domains shown)
VH: EVQLVESGGGLVKPGGSLRLSCAASGFTLSSYSMNWVRQAPGKGLEWVSSISRSSSYIYYADSVKGRFTISRDNAKNSLYLQMNSLRAEDTAVYYCARERWELLYFDYWGQGTLVTVSS
VL: NFMLTQPHSVSESPGKTVTISCTRSSGSIASNYVQWYQQRPGSSPTTVIYEDNQRPSGVPDRFSGSIDSSSNSASLTISGLKTEDEADYYCQSFDNSNRVFGGGTKLTVL
notes: as for B1
Turning to B5, in assay [5], the Kd turned out to be 23.3 nM, the Response came out at 0.6, the koff came out at 0.00191 s⁻¹ and the kon was determined as 81700 M⁻¹ s⁻¹. Also, in assay [4], the Kd is 62.9 nM, the Response came to 0.4, the koff was 0.00665 s⁻¹ and the kon came out at 106000 M⁻¹ s⁻¹.

B6: ABL-CD3-1 (antibody, V domains shown)
VH: EVQLVESGGGLVKPGGSLRLSCAASGFTLSSYSMNWVRQAPGKGLEWVSSISRSGSYIYYADSVKGRFTISRDNAKNSLYLQMNSLRAEDTAVYYCAREKWELLYFDYWGQGTLVTVSS
VL: NFMLTQPHSVSESPGKTVTISCTRSSGSIASNYVQWYQQRPGSSPTTVIYEDNQRPSGVPDRFSGSIDSSSNSASLTISGLKTEDEADYYCQSYDSSNRVFGGGTKLTVL
notes: as for B1
With B6, in assay [5], the Kd is 108 nM, the Response turned out to be 0.31, the koff came out at 0.0157 s⁻¹ and the kon turned out to be 145000 M⁻¹ s⁻¹. In assay [6], the dissociation constant (Kd) is 1210 nM, the Response worked out at 0.07, the koff came to 0.171 s⁻¹ and the kon was found to be 142000 M⁻¹ s⁻¹.

B7: ABL-CD3-14 (antibody, V domains shown)
VH: EVQLVESGGGLVKPGGSLRLSCAASGFTCSSYSMTWVRQAPGKGLEWVSSISRRSSYIYYADSVKGRFTISRDNAKNSLYLQLNSLRAEDTAVYYCARERWELLYFDYWGQGTLVTVSS
VL: NFMLTQPHSVSESPGKTVTISCTRSSGSIASNYVQWYQQRPGSSPTTVIYEDNQRPSGVPDRFSGSIDSSSNSASLTISGLKTEDEADYYCQSYDSSNRVFGGGTKLTVL
notes: as for B1
For B7, in assay [1], the Kd worked out at 12.8 nM, the Response was 0.17, the koff was found to be 0.00152 s⁻¹ and the kon is 119000 M⁻¹ s⁻¹. Further, in assay [6], the Kd was 9.66 nM, the Response turned out to be 0.08, the koff came out at 0.00287 s⁻¹ and the kon was determined as 298000 M⁻¹ s⁻¹.

B8: ABL-CD3-6 (antibody, V domains shown)
VH: EVQLVDSGGGLVKPGGSLRLSCAASGFTFSSYSMNWVRQAPGKGLEWVSSISSRGSYRNYADSVKGRFTISRDNAKNSLYLQMNSLRAEDTAVYYCARDRRELLLDCWGQGTLVTVSS
VL: SYELTQPPSVSVSPGQTARITCSGDALPKKYAYWYQQKSGQAPVLVIYEDSKRPSGIPERFSGSSSGTMATLTISGAQVEDEADYYCYSTDSSGNHSWVFGGGTKLTVL
notes: as for B1
Regarding B8, in assay [5], the Kd was determined as 69.7 nM, the Response was 0.3, the koff is 0.0333 s⁻¹ and the kon turned out to be 477000 M⁻¹ s⁻¹. Besides, in assay [4], the Kd was 138 nM, the Response was 0.17, the koff was determined as 0.0779 s⁻¹ and the kon was determined as 566000 M⁻¹ s⁻¹.

B9: CD3 × CD33-BspAb65 (bispecific antibody)
scFv-Fc: NFMLTQPHSVSESPGKTVTIACTRSSGSIASNYVQWYQQRPGSSPTTVIYEDNQRPSGVPDRFSGSIDSSSNSASLTISGLKTEDEADYYCQSYDSSNQVFGCGTKLTVLGGGGSGGGGSGGGGSGGGGSQVTLKESGPGILQPSQTLSLTCSFSGFSLSTFGMGVGWIRQPSGKCLEWLAHIWWDDDKYYNPALKSRLTISKDTSKNQVFLKIANVDTADTATYYCARLGYYPYWFFDVWGTGTTVTVSSGGGGSDKTHTCPPCPAPEFEGGPSVFLFPPKPKDTLMISRTPEVTCVVVDVSHEDPEVKFNWYVDGVEVHNAKTKPREEQYNSTYRVVSVLTVLHQDWLNGKEYKCKVSNKALPASIEKTISKAKGQPREPQVYTLPPCREEMTKNQVSLWCLVKGFYPSDIAVEWESNGQPENNYKTTPPVLDSDGSFFLYSKLTVDKSRWQQGNVFSCSVMHEALHNHYTQKSLSLSPGK
heavy: EVQLVQSGAEVKKPGSSVKVSCKASGYTITDSNIHWVRQAPGQSLEWIGYIYPYNGGTDYNQKFKNRATLTVDNPTNTAYMELSSLRSEDTAFYYCVNGNPWLAYWGQGTLVTVSSASTKGPSVFPLAPSSKSTSGGTAALGCLVKDYFPEPVTVSWNSGALTSGVHTFPAVLQSSGLYSLSSVVTVPSSSLGTQTYICNVNHKPSNTKVDKRVEPKSCDKTHTCPPCPAPEFEGGPSVFLFPPKPKDTLMISRTPEVTCVVVDVSHEDPEVKFNWYVDGVEVHNAKTKPREEQYNSTYRVVSVLTVLHQDWLNGKEYKCKVSNKALPASIEKTISKAKGQPREPQVCTLPPSREEMTKNQVSLSCAVKGFYPSDIAVEWESNGQPENNYKTTPPVLDSDGSFFLVSKLTVDKSRWQQGNVFSCSVMHEALHNRFTQKSLSLSPGK
light: DIQLTQSPSTLSASVGDRVTITCRASESLDNYGIRFLTWFQQKPGKAPKLLMYAASNQGSGVPSRFSGSGSGTEFTLTISSLQPDDFATYYCQQTKEVPWSFGQGTKVEVKRTVAAPSVFIFPPSDEQLKSGTASVVCLLNNFYPREAKVQWKVDNALQSGNSQESVTEQDSKDSTYSLSSTLTLSKADYEKHKVYACEVTHQGLSSPVTKSFNRGEC
In the case of B9, the values for the flow cytometry signal in assay [7] and in assay [8] were 533000 and 605000, respectively.
